Reference: US20200283521A1 (GRANULAR THERAPEUTICS, published 2020)

Key:
Test in all cases: cell array, transfected fixed HEK293 cells
MS4A1 = biological target: T1, MS4A1 (human, UniProt P11836)
T1 construct: expressed in transfected HEK293 cells; also called CD20
T1 sequence (looked up): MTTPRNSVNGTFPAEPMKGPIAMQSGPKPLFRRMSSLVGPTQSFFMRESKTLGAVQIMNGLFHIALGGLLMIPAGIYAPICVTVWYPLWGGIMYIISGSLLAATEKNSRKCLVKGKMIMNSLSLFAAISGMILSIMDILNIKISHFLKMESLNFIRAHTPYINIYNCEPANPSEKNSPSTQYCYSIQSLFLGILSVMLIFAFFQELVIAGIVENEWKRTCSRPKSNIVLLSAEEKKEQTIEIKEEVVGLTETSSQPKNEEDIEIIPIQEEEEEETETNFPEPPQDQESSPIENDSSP
Procedure: (§1) Transfection of all plasmids was confirmed by screening for the co-encoded marker ZS green (FIG. 13A).
(§2) Primary hits (duplicate spots) were identified by analysing fluorescence (AF647 and ZsGreenl) on ImageQuant. Vectors encoding all hits were sequenced to confirm their correct identities. […] Slides were analysed as above.

EGFR = biological target: T2, EGFR (human, UniProt P00533)
T2 construct: expressed in transfected HEK293 cells
Procedure: as §1, §2

ANXA6 = biological target: T3, ANXA6 (human, UniProt P08133)
T3 construct: expressed in transfected HEK293 cells
T3 sequence (looked up): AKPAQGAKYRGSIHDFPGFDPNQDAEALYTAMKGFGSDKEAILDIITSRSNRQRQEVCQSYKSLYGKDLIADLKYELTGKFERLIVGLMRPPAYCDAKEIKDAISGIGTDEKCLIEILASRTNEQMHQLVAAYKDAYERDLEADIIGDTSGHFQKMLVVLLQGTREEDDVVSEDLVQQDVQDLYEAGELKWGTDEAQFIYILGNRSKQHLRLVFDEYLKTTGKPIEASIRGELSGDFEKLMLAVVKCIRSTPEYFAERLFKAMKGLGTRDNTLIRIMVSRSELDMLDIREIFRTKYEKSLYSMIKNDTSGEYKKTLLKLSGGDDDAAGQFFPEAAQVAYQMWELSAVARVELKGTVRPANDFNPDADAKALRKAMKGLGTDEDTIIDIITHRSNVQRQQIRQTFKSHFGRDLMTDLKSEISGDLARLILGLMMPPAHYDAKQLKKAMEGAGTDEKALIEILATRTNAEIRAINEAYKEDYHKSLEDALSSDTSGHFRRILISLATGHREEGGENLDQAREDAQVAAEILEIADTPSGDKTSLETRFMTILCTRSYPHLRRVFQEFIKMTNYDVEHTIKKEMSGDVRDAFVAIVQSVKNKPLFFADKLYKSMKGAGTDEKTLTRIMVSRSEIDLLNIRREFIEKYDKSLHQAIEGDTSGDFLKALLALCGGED
Procedure: as §1, §2

KRT19 = biological target: T4, KRT19 (human, UniProt P08727)
T4 construct: expressed in transfected HEK293 cells
T4 sequence (looked up): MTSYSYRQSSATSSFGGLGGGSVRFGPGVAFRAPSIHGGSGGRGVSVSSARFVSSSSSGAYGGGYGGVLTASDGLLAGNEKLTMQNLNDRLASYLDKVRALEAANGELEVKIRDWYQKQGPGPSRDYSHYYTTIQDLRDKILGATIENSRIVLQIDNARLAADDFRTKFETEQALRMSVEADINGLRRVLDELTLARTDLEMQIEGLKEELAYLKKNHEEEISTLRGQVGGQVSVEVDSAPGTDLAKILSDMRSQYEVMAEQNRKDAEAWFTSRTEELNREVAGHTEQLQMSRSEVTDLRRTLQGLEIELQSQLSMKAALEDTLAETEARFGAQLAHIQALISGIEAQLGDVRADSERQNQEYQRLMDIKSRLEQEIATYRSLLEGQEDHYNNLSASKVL
Procedure: as §1, §2

MSN = biological target: T5, MSN (human, UniProt P26038)
T5 construct: expressed in transfected HEK293 cells
Procedure: as §1, §2

DES = biological target: T6, DES (human, UniProt P17661)
T6 construct: expressed in transfected HEK293 cells
Procedure: as §1, §2

TGM2 = biological target: T7, TGM2 (human, UniProt P21980)
T7 construct: expressed in transfected HEK293 cells
T7 sequence (looked up): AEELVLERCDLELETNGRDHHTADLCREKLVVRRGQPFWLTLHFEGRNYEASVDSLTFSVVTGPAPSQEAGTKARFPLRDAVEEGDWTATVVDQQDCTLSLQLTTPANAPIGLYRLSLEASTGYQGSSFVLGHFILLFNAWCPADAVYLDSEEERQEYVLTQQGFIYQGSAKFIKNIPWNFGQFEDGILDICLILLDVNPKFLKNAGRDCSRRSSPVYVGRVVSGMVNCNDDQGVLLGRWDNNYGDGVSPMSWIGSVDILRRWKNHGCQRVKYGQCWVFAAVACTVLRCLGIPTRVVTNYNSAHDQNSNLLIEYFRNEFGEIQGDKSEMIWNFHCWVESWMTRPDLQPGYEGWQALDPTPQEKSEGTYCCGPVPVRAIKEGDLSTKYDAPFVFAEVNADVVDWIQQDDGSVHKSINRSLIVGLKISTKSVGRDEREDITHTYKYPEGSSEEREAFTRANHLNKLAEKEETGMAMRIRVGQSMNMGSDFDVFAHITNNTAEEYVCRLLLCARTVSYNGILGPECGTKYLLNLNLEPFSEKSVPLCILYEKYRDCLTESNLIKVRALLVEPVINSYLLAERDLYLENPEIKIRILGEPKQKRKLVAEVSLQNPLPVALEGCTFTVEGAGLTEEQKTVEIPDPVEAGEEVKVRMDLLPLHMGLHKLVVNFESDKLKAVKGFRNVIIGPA
Procedure: as §1, §2

COL23A1 = biological target: T8, COL23A1 (human, UniProt Q86Y22)
T8 construct: expressed in transfected HEK293 cells
Procedure: as §1, §2

OSM = biological target: T9, OSM (human, UniProt P13725)
T9 construct: expressed in transfected HEK293 cells
T9 sequence (looked up): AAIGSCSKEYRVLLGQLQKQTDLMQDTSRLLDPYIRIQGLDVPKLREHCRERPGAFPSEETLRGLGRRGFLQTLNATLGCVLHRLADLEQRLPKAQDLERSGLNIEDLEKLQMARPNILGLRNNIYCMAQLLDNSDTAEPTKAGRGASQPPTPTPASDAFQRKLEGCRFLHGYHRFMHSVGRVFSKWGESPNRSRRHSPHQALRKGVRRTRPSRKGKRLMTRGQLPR
Procedure: as §1, §2

Measured: binding result

T6 sequence (P17661 2-470 limits assumed): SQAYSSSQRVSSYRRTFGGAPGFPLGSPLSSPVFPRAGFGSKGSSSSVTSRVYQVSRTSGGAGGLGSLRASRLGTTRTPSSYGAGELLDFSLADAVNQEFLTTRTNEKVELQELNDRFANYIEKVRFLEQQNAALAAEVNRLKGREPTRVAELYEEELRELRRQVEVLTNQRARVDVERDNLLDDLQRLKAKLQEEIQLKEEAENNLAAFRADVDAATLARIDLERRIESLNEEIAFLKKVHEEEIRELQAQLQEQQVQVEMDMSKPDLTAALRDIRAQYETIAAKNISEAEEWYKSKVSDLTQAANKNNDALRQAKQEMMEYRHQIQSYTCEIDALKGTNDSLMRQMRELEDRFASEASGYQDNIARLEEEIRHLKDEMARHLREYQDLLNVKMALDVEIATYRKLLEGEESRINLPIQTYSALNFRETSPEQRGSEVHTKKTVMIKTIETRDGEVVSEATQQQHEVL
T8 sequence (Q86Y22 whole entry): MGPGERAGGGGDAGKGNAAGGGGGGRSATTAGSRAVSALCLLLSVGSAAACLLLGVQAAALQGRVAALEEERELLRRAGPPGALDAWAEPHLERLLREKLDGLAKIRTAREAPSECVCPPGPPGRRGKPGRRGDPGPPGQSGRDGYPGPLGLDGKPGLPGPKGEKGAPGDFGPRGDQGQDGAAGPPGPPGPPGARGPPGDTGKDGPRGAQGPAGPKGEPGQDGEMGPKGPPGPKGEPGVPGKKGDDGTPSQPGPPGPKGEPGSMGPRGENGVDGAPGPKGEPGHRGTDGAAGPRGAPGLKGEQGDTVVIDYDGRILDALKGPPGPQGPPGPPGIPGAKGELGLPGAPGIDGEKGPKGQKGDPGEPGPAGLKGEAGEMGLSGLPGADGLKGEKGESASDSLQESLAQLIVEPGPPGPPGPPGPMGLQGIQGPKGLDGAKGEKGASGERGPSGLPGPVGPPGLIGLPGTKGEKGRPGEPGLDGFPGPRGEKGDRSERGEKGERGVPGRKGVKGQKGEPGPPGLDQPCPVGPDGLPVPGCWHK
T5 sequence (P26038 2-577 limits assumed): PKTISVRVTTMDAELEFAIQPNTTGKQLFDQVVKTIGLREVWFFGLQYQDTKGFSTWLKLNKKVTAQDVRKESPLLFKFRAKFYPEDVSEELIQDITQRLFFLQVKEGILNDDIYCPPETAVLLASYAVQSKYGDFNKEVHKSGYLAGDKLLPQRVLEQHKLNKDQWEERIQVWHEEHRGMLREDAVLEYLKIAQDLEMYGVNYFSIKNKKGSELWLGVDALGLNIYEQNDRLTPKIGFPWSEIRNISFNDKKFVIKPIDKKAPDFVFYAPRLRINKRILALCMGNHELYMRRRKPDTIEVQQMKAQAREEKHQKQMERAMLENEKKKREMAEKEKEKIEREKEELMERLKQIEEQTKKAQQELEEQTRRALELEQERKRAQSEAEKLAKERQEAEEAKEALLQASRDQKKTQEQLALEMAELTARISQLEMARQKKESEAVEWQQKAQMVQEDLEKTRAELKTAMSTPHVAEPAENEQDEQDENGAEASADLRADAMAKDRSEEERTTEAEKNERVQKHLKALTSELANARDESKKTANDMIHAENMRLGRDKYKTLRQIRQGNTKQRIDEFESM

B1: humanized h37M, human IgG1 (antibody, V domains shown)
VH: QVQLVQSGAEVKKPGASVKLSCKASGYTFTDYYINWVRQAPGKGLEWIARIYPGSGNTYYNEKFKGRATLTADKSTSTAYMQLSSLRSEDTAVYFCARGVYYFDYWGQGTTVTVSS
VL: DIVMTQSPSSLSASVGDRVTITCKASQNVRTNVAWYQQKPGKAPKALIYSASYRYSGVPDRFTGSGSGTDFTLTISSLQPEDFADYFCQQYNSYPRTFGGGTKVEIK
notes: human IgG1; terbium-labelled as the tracer of the HTRF assays; also called C-KIT-h37M; h37M-IgG1
no binding (tested: 2 µg/ml): all assays above
